Reference: article PMC4156074, “Inhibition of Plasma Kallikrein by a Highly Specific Active Site Blocking Antibody” (The Journal of Biological Chemistry, 2014)
Substitutions are numbered along the chain they refer to. Names may count otherwise.

Experiments:
Settings in all cases: both partners purified
[1] = molecular target: T1, Full-length human plasma kallikrein, activated form (human, UniProt P03952 20-390; P03952 391-638); test: SPR; BIAcore 3000, 25 °C, HBS-P; 2-chain HMWK amine-coupled on CM5 (~2000 RU); varying pKal flowed 5 min at 20 ul/min; equilibrium RU fit to Equation 3
T1 construct: also called pKal; active pKal; source: bought: Enzyme Research Laboratories
T1 sequence (P03952 20-390, chain 1 of 2): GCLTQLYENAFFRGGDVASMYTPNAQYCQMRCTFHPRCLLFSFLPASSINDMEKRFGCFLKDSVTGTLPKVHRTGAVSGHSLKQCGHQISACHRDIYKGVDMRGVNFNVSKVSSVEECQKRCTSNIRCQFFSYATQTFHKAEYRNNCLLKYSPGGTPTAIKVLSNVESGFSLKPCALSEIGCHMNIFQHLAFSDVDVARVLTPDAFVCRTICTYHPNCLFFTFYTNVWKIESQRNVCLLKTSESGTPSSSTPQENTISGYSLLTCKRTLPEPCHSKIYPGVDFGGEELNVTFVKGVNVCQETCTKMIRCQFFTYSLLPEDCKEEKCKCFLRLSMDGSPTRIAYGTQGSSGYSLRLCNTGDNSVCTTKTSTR
T1 sequence (P03952 391-638, chain 2 of 2): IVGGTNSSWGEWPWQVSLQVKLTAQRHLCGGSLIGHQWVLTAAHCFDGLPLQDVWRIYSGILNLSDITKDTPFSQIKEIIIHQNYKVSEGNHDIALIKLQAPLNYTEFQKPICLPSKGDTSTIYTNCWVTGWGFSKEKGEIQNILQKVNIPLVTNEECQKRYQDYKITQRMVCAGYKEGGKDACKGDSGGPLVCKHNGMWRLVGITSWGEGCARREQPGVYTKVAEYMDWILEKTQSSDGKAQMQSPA

[2] = molecular target: T2, Full-length human plasma kallikrein, activated form (human, UniProt P03952); test: enzyme inhibition (steady state, tight-binding fit); purified Fab fragments on full-length pKal, potency studies like those of Fig. 2A; apparent
T2 construct: also called pKal; active pKal; source: bought: Enzyme Research Laboratories
T2 sequence (P03952 20-390, chain 1 of 2): as the sequence (P03952 20-390, chain 1 of 2) above
T2 sequence (P03952 391-638, chain 2 of 2): as the sequence (P03952 391-638, chain 2 of 2) above

pKal from rat plasma [3] = molecular target: T3, pKal from rat plasma (Rattus norvegicus, UniProt P14272); test: as above
T3 construct: also called rat pKal; source: purified from rat plasma by Athens Research and Technology
T3 sequence (P14272 20-638): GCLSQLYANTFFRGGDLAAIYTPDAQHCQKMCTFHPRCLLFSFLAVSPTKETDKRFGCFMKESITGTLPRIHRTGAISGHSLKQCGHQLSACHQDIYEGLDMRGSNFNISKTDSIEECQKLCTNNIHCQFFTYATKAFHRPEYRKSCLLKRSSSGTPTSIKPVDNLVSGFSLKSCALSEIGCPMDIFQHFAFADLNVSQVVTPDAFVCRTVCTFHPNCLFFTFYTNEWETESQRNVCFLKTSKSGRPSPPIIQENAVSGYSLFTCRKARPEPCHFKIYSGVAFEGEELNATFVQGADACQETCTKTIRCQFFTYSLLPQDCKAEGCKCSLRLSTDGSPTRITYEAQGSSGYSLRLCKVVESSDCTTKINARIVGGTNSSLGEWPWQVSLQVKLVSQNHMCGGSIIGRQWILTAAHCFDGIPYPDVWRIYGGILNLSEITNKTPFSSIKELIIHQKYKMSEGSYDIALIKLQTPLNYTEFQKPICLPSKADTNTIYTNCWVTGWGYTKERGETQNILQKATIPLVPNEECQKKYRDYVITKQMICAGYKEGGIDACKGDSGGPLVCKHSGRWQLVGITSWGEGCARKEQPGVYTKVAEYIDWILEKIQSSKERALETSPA

[4] = molecular target: T4, Full-length human plasma prekallikrein (Homo sapiens, UniProt P03952); test: SPR; BIAcore 3000, 25 °C, HBS-P (10 mM HEPES pH 7.4, 150 mM NaCl, 0.005% P20); DX-2930 captured on goat anti-human Fc IgG on CM5; 500 nM prekallikrein, pKal or pKal-AEBSF injected 5 min at 20 ul/min, 5 min dissociation
T4 construct: human plasma prekallikrein, single-chain zymogen; also called zymogen; source: bought: Enzyme Research Laboratories

purified pKal from mouse = molecular target: T5, purified pKal from mouse (Mus musculus, UniProt P26262); test: enzyme inhibition (steady state, tight-binding fit); DX-2930 on purified pKal of mouse, rat, rabbit and cynomolgus monkey; apparent; data not shown
T5 construct: also called mouse pKal
T5 sequence (P26262 20-638): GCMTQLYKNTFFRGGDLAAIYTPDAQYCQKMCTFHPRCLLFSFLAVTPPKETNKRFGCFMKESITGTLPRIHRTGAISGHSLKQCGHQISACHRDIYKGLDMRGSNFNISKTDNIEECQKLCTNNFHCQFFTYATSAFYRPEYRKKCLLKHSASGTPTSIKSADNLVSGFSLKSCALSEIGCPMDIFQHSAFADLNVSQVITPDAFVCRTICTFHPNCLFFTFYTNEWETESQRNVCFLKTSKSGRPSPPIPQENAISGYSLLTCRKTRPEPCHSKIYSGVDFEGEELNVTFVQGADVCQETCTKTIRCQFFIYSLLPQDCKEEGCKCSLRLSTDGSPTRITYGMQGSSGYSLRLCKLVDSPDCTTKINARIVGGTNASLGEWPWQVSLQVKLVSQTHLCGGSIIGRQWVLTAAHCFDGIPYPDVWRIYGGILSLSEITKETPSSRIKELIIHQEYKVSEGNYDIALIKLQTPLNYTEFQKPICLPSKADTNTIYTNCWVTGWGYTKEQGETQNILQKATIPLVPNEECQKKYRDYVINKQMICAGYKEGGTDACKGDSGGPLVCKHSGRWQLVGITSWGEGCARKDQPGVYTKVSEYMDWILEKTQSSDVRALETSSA

pKal from rabbit plasma = molecular target: T6, pKal from rabbit plasma (Oryctolagus cuniculus, UniProt G1T127); test: as above
T6 construct: also called rabbit pKal; source: purified from rabbit plasma by Athens Research and Technology

pKal from rat plasma [5] = molecular target: T3, pKal from rat plasma; test: as above
[6] = molecular target: T7, pKal complexed with 2-chain HMWK (Homo sapiens, UniProt P03952;P01042); test: enzyme inhibition (steady state, tight-binding fit); DX-2930 IgG (up to 10 nM, 1.5-fold dilutions) incubated 1 h at 30 °C with 1 nM pKal, free or preincubated with 600 nM 2-chain HMWK, in 20 mM Tris-HCl pH 7.5, 150 mM NaCl, 1 mM EDTA, 0.1% PEG-8000, 0.1% Triton X-100; substrate H-Pro-Phe-Arg-AMC at 10, 50 or 100 uM; Ki from Ki app by Equation 2, averaged
T7 construct: heavy chain of 2-chain HMWK, as in m6; light chain of 2-chain HMWK, as in m6; also called pKal·HMWK complex; source: bought proteins (Enzyme Research Laboratories); pKal preincubated with 600 nM (or 4.7 uM) HMWK; copies: + + +
T7 sequence (P03952 20-390, looked up, one chain of several): as the sequence (P03952 20-390, chain 1 of 2) above

B1: 2-chain high molecular weight kininogen (treated with pKal to excise bradykinin) (natural protein, human)
chain 1: QESQSEEIDCNDKDLFKAVDAALKKYNSQNQSNNQFVLYRITEATKTVGSDTFYSFKYEIKEGDCPVQSGKTWQDCEYKDAAKAATGECTATVGKRSSTKFSVATQTCQITPAEGPVVTAQYDCLGCVHPISTQSPDLEPILRHGIQYFNNNTQHSSLFMLNEVKRAQRQVVAGLNFRITYSIVQTNCSKENFLFLTPDCKSLWNGDTGECTDNAYIDIQLRIASFSQNCDIYPGKDFVQPPTKICVGCPRDIPTNSPELEETLTHTITKLNAENNATFYFKIDNVKKARVQVVAGKKYFIDFVARETTCSKESNEELTESCETKKLGQSLDCNAEVYVVPWEKKIYPTVNCQPLGMISLMK
chain 2: SSRIGEIKEETTVSPPHTSMAPAQDEERDSGKEQGHTRRHDWGHEKQRKHNLGHGHKHERDQGHGHQRGHGLGHGHEQQHGLGHGHKFKLDDDLEHQGGHVLDHGHKHKHGHGHGKHKNKGKKNGKHNGWKTEHLASSSEDSTTPSAQTQEKTEGPTPIPSLAKPGVTVTFSDFQDSDLIATMMPPISPAPIQSDDDWIPDIQIDPNGLSFNPISDFPDTTSPKCPGRPWKSVSEINPTTQMKESYYFDLTDGLS
notes: heavy chain of human high molecular weight kininogen after excision of bradykinin; light chain of human high molecular weight kininogen after excision of bradykinin; also called 2-chain HMWK; 2-chain kininogen; source: bought: Enzyme Research Laboratories
- Kd [1]: 72 nM

B2: Fab M0201-H06 (Fab, V domains shown)
VH: EVQLLESGGGLVQPGGSLRLSCAASGFTFSHYIMMWVRQAPGKGLEWVSGIYSSGGITVYADSVKGRFTISRDNSKNTLYLQMNSLRAEDTAVYYCAYRRTGVPRRDAFDIWGQGTMVTVSS
VL: DIQMTQSPSTLSASVGDRVTITCRASQSISSWLAWYQQKPGKAPNLLIYKASTLESGVPSRFSGSGSGTEFTLTISSLQPDDFATYYCQQYNTYWTFGQGTKVEIK
notes: M0162-A04 with I103V alone in HV-CDR3; against the heavy chain of m2 it keeps T101 and A108; as the light chain of m2, germ line optimisation aside; source: E. coli, secreted, purified (protein A-Sepharose)
- Ki [2]: 0.56 nM

B3: isolate M0199-A08 (Fab, V domains shown)
VH: B2 VH with T101I, A108E
VL: B2 VL
notes: M0162-A04 with T101I, I103V and A108E in HV-CDR3; as the heavy chain of m2 before germ line optimisation; as the light chain of m2 before germ line optimisation; also called M0199-A08 variant; source: E. coli, secreted, purified (protein A-Sepharose)
- Ki [2]: 0.05 nM

B4: Fab M0162-A04 (lead Fab, parent of the affinity maturation) (Fab, V domains shown)
VH: B2 VH with V103I
VL: B2 VL
notes: as the heavy chain of m2 but with the parental HV-CDR3 residues T101, I103, A108; as the light chain of m2, germ line optimisation aside; source: E. coli, secreted, purified (protein A-Sepharose)
- Ki [2]: ~5 nM
- Ki (pKal from rat plasma [3]): ~5 nM

B5: DX-2930, fully human IgG1 monoclonal antibody (antibody, V domains shown)
VH: B2 VH with T101I, A108E
VL: B2 VL with N45K
notes: the Fab portion of the heavy chain is in the deposited structures (as the heavy chain of m2); the rest is the human IgG1 constant region (f-allotype); as the light chain of m2 in the deposited structures; IgG1 (f-allotype); Biotinylated for the ELISA on HUVEC; also called germ line-optimized M0199-A08; copies: 2 + 2
- binding result [4]: no binding (tested: 500 nM)
- Ki (purified pKal from mouse): 0.17 nM
- Ki (pKal from rabbit plasma): 14.2 nM
- Ki (pKal from rat plasma [5]): 0.17 nM
- Ki [6]: 0.115 ± 0.003 nM
